The source of these data is PMC6902002, “Recognition and processing of branched DNA substrates by Slx1–Slx4 nuclease”.

The data set has as its target T1, Tt-Slx1 E79Q-Slx4CCD3 (Thielavia terrestris, UniProt G2QV68;G2RCY5 1-324;834-936, E79Q).
T1 sequence 1: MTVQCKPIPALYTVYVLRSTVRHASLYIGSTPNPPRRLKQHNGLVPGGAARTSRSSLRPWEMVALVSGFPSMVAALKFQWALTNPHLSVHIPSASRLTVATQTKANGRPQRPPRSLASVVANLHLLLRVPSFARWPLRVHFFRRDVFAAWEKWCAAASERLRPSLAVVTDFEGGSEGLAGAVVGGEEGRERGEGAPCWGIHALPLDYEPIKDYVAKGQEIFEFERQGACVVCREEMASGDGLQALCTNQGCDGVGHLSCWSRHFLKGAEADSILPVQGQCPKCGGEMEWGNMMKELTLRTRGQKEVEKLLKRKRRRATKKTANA
T1 sequence 2: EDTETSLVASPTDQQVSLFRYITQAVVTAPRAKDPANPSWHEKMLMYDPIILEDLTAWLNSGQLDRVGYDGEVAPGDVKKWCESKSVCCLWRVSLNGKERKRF
The experiment in a line: X-ray crystallography; Zn2+ in RING domain; 0.2 M CaCl2, 5 mM EDTA, pH 6.0; 2.7 A; Fluorescence anisotropy: 20 mM HEPES pH 7.5, 2.5 mM CaCl2, 100 mM NaCl, 0.1 mg/ml BSA, 25 C; 25 nM DNA, 0-500 nM protein. As to conditions: protein: recombinant; tags: N-terminal 6xHis on Slx1; Slx4CCD3 untagged; chain copies: 2;2; self-annealed splayed arm; single G-A mismatch and unpaired bases in crystal.

With CAATCGGCAATGACCTTTGGTCATTCGGCAGAT (structured_DNA) [self-annealing splayed-arm crystallization DNA], the binding result is listed as “binds”.
